Publication PMC5735978
Blank lines part the entries; values can stand above or below the substance they belong to.

Legend:
[1] = target: 6xHis-14-3-3γ wild-type (human) (UniProt P61981); test: native gel or EMSA; blue native gel (4-16%) of His-14-3-3γ after incubation with Flag-PAK6 S531N (4:1 molar ratio) under kinase assay conditions with or without 1 mM ATP; Coomassie staining
[2] = target: LRRK2 (UniProt Q5S007); test: overlay of His-14-3-3γ on blotted Flag-LRRK2; conditions: reference: 14-3-3γ wild type; sites S59
[3] = target: 14-3-3γ (UniProt P61981); test: overlay of His-14-3-3γ on blotted Flag-PAK6; conditions: reference: PAK6 wild type; sites S113

- stoichiometry N [1]: 2
Substance: 6xHis-14-3-3γ wild-type (from UniProt P61981 1-247) (natural protein)

- other: percent reduction versus wild type [2]: 80%
Substance: 14-3-3γ (from UniProt P61981) 14-3-3γ S59D

- binding against the reference [3]: weaker
Substance: PAK6 (from UniProt Q9NQU5) PAK6 S113A
